How the values were obtained:
[1] = substrate: O=C(O)C(=O)C[C@H](O)[C@@H](O)C(=O)O; test: purified protein; format: biochemical, Polaromonas naphthalenivorans; details: 2.5 mM KPi pH 7.0, 2 mM MgCl2, 25 μg/ml BTB, 37 °C
[2] = substrate: O=C(O)C(=O)C[C@H](O)[C@@H](O)C(=O)O; test: purified protein; format: biochemical, Acinetobacter baylyi; details: 2.5 mM KPi pH 7.0, 2 mM MgCl2, 25 μg/ml BTB, 37 °C

B1: KdgDPn (Polaromonas naphthalenivorans CJ2) (protein)
chain: MNPQDLKTIVSSGLLSFPVTDFDEQGDFRPKTYIERLEWLAPYGATALFAAGGTGEFFSLTGDEYPLIIKTAVNTCAGKVPIIAGVGGPTRFAIACAQEAERLGAHGILLLPHYLMEAGQEGLIAHVEAVCKSVKFGVIVYNRNVCKLTPESLAILADRCPNLIGFKDGVGNIETMSSIFMKMGDRFSYLGGLPTAEVYAAAYKALGTPVYSSAVFNFIPKTAMDFYHAVASDDLATQHRLLRDFFMPYLALRNKNPGYAVSIVKAGATIVGHDAGPVRPPLTDLKPAEMEELAVLIKSLGPQ
notes: full-length, C-terminal His-tag (CH), codon-optimized gene, E. coli ArcticExpress(DE3), IMAC purified
In the case of B1, the Km [1] is reported as 1100 ± 100 µM, the Vmax [1] is reported as 3 µmol/min/mg and the kcat [1] is reported as 1.7 ± 0.01 s⁻¹. For the same protein, the kcat/Km [1] was 1500 M⁻¹ s⁻¹.

B2: KdgDAb (Acinetobacter baylyi ADP1) (protein)
chain: MDALELKNIVSDGLLSFPVTDFDQNGDFNAASYAKRLEWLAPYGASALFAAGGTGEFFSLTGDEYSDVIKTAVDACKGSVPIIAGAGGPTRQAILQAQEAERLGAHGILLMPHYLTEASQEGLVEHVKQVCNAVNFGVIFYNRSVSKLNVDSLQQLVESCPNLIGFKDSSGQIDMMTEVVQTLGDRLSYLGGLPTAEIFAAPYKALGSPVYSSAVFNFIPKTAMEFYNALRNDDFATTQRLIRDFFLPLIKIRNRKSGYAVSMVKAGAKIVGHDAGPVRPPLSDLTPQDYEDLAALIATLGPQ
notes: full-length, N-terminal His-tag (NH), codon-optimized gene, E. coli BL21(DE3), IMAC purified
With B2 the Km [2] was 1000 ± 100 µM, the Vmax [2] was 8 µmol/min/mg and the kcat [2] was 4.5 ± 0.02 s⁻¹. It also gave a kcat/Km [2] of 4500 M⁻¹ s⁻¹.
